Results taken from paper PMC5648754, “CryoEM structure of Saccharomyces cerevisiae U1 snRNP offers insight into alternative splicing” (Nature Communications, 2017).

T1: yeast Prp40 (S. cerevisiae, UniProt P33203 1-583)
T1 construct: Prp40 of S. cerevisiae U1 snRNP; not modelled in the structure; source: endogenous, S. cerevisiae; co-purified in U1 snRNP through the TAP tag on U1A
T1 sequence (looked up): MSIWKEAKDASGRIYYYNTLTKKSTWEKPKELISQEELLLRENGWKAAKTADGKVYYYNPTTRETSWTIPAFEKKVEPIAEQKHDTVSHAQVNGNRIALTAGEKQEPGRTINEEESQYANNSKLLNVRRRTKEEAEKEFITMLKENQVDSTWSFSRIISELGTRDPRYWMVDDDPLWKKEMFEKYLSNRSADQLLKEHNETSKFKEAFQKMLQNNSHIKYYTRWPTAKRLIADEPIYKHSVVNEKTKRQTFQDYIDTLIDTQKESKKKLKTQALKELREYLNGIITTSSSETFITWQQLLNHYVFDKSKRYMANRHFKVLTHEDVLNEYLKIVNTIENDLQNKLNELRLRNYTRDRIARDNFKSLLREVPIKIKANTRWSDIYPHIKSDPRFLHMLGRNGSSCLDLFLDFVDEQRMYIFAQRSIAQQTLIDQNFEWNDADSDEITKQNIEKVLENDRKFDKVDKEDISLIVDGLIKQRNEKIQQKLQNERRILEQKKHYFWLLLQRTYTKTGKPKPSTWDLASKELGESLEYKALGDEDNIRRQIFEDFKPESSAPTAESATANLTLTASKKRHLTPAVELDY

T2: yeast Prp42 (S. cerevisiae, UniProt Q03776 1-544)
T2 construct: Prp42 of S. cerevisiae, 544 residues; residues 2-540 modelled; source: endogenous, S. cerevisiae; co-purified in U1 snRNP through the TAP tag on U1A
T2 sequence (looked up): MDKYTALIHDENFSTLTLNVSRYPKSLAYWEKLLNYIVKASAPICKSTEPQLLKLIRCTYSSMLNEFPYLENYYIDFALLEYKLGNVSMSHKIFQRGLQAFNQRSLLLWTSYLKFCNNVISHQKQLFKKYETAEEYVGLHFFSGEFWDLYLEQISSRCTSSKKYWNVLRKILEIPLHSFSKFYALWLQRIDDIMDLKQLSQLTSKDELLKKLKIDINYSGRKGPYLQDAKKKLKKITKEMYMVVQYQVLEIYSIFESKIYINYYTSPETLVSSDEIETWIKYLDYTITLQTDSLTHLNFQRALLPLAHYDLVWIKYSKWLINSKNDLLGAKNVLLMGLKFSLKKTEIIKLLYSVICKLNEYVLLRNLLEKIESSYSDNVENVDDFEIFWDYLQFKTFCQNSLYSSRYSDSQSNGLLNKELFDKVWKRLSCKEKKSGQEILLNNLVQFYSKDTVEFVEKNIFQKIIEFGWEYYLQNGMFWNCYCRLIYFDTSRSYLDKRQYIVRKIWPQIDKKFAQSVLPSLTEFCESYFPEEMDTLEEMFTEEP

T3: yeast Snu56 (S. cerevisiae, UniProt Q03782 1-492)
T3 construct: Snu56 of S. cerevisiae, 492 residues; N-terminal domain 47-254 and long helix 255-303 modelled; source: endogenous, S. cerevisiae; co-purified in U1 snRNP through the TAP tag on U1A
T3 sequence (looked up): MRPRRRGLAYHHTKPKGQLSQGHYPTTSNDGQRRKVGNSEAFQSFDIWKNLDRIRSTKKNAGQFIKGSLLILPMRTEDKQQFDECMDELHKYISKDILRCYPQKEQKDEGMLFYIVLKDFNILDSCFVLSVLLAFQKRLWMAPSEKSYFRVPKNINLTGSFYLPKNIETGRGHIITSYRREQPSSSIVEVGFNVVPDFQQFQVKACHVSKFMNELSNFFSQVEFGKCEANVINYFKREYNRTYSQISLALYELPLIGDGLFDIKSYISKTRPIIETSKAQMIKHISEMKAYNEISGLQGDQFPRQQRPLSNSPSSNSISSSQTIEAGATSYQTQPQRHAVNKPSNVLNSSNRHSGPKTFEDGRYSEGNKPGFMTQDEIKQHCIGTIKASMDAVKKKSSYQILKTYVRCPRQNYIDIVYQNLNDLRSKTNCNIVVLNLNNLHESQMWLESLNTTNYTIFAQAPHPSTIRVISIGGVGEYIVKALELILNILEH

T4: yeast U1C (S. cerevisiae, UniProt Q05900 1-231)
T4 construct: U1C of S. cerevisiae U1 snRNP, 231 residues; NTD residues 1-48; residues 3-47 and 48-195 modelled; also called Yhc1; source: endogenous, S. cerevisiae; co-purified in U1 snRNP through the TAP tag on U1A
T4 sequence (looked up): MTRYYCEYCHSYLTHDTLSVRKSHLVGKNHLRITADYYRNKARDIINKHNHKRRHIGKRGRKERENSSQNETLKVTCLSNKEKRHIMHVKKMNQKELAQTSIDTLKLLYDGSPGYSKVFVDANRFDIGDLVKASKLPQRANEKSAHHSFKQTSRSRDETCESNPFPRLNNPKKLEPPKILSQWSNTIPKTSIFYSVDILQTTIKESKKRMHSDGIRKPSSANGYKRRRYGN


Assays:
yeast Prp40 = target: T1, yeast Prp40; experiment: cross-linking; purified yeast U1 snRNP cross-linked with 100 uM BS3, 30 min, room temperature; trypsin digest, mass spectrometry; conditions: both partners purified
yeast Prp42 = target: T2, yeast Prp42; experiment: cryo-EM structure; natively purified yeast U1 snRNP, 3.6 Å overall resolution; conditions: both partners purified
yeast Snu56 = target: T3, yeast Snu56; experiment: as above; conditions: both partners purified
yeast U1C = target: T4, yeast U1C; experiment: as above; conditions: both partners purified
[1] = target: the molecule itself; experiment: negative-stain EM; purified Flag-PrpF39; reference-free 2D class averages and preliminary 3D model compared with the Prp42/Prp39 heterodimer

| binding result (yeast Prp40) | binding result (yeast Prp42) | binding result (yeast Snu56) | binding result (yeast U1C) | Binder | stoichiometry N [1] |
| --- | --- | --- | --- | --- | --- |
| binds | binds | binds |  | yeast Luc7 (natural protein, S. cerevisiae, UniProt Q07508 1-261, looked up, Luc7 of S. cerevisiae, 261 residues; first (pseudo) Zn-finger modelled; source: endogenous, S. cerevisiae; co-purified in U1 snRNP through the TAP tag on U1A) MSTMSTPAAEQRKLVEQLMGRDFSFRHNRYSHQKRDLGLHDPKICKSYLVGECPYDLFQGTKQSLGKCPQMHLTKHKIQYEREVKQGKTFPEFEREYLAILSRFVNECNGQISVALQNLKHTAEERMKIQQVTEELDVLDVRIGLMGQEIDSLIRADEVSMGMLQSVKLQELISKRKEVAKRVRNITENVGQSAQQKLQVCEVCGAYLSRLDTDRRLADHFLGKIHLGYVKMREDYDRLMKNNRTTNASKTATTLPGRRFV |  |
|  | binds |  | binds | yeast SmD3 (natural protein, S. cerevisiae, UniProt P43321 1-101, looked up, SmD3 of S. cerevisiae, member of the Sm ring of U1 snRNP; source: endogenous, S. cerevisiae; co-purified in U1 snRNP through the TAP tag on U1A) MTMNGIPVKLLNEAQGHIVSLELTTGATYRGKLVESEDSMNVQLRDVIATEPQGAVTHMDQIFVRGSQIKFIVVPDLLKNAPLFKKNSSRPMPPIRGPKRR |  |
|  |  |  |  | human PrpF39, Flag-tagged (second copy HA-tagged in the co-IP) (natural protein, UniProt Q86UA1 1-669, looked up, human PrpF39; In the co-IP two differently tagged copies (Flag-PrpF39 and HA-PrpF39) were co-transfected; The purified protein carries the Flag tag; also called Flag-PrpF39; HA-PrpF39; source: HEK293FT, transfected (pEF-Bos-Flag-PrpF39 and/or pEF-Bos-HA-PrpF39), in lysate; also purified (anti-Flag M2 agarose, 3x Flag peptide elution, Superose 6 gel filtration)) MQNSHMDEYRNSSNGSTGNSSEVVVEHPTDFSTEIMNVTEMEQSPDDSPNVNASTEETEMASAVDLPVTLTETEANFPPEYEKFWKTVENNPQDFTGWVYLLQYVEQENHLMAARKAFDRFFIHYPYCYGYWKKYADLEKRHDNIKPSDEVYRRGLQAIPLSVDLWIHYINFLKETLDPGDPETNNTIRGTFEHAVLAAGTDFRSDRLWEMYINWENEQGNLREVTAIYDRILGIPTQLYSHHFQRFKEHVQNNLPRDLLTGEQFIQLRRELASVNGHSGDDGPPGDDLPSGIEDITDPAKLITEIENMRHRIIEIHQEMFNYNEHEVSKRWTFEEGIKRPYFHVKPLEKAQLKNWKEYLEFEIENGTHERVVVLFERCVISCALYEEFWIKYAKYMENHSIEGVRHVFSRACTIHLPKKPMVHMLWAAFEEQQGNINEARNILKTFEECVLGLAMVRLRRVSLERRHGNLEEAEHLLQDAIKNAKSNNESSFYAVKLARHLFKIQKNLPKSRKVLLEAIERDKENTKLYLNLLEMEYSGDLKQNEENILNCFDKAVHGSLPIKMRITFSQRKVEFLEDFGSDVNKLLNAYDEHQTLLKEQDSLKRKAENGSEEPEEKKAHTEDTTSSSTQMIDGDLQANQAVYNYSAWYQYNYQNPWNYGQYYPPPPT | 2 |
